Patent WO2006085967A2 (dated 2006)
Values belong to the binder of their own block, whether it stands above or below them.

Columns and labels:
[1] = target: T1, extracellular region of human V158 FcγRIIIa with C-terminal 6x His-tag and GST-tag (human, UniProt P08637 17-208); assay: SPR; receptor immobilized, antibody flowed
T1 construct: extracellular domain; on glutathione acceptor beads (AlphaScreen) or immobilized on the SPR chip; also called Val158 FcγRIIIa; V158 FcγRllla; not shown: 6x His-tag; GST-tag

[2] = target: T1, extracellular region of human V158 …; assay: only one value in the row
[3] = target: T1, extracellular region of human V158 …; assay: SPR; fold affinity vs WT (read as two values, 1 and 1.86; could be 11.86)
[4] = target: T1, extracellular region of human V158 …; assay: AlphaScreen competition; fold affinity vs WT (read as two values, 1 and 1.86; could be 11.86)
[5] = target: T1, extracellular region of human V158 …; assay: SPR; fold affinity vs WT
[6] = target: T1, extracellular region of human V158 …; assay: AlphaScreen competition; fold affinity vs WT

B2: E283H alemtuzumab (antibody)
chain 1: not shown
chain 2: not shown
Fold WT (AlphaScreen or SPR) [2]: 2.31 fold

B3: E272R alemtuzumab (antibody)
chain 1: not shown
chain 2: not shown
Fold WT (AlphaScreen or SPR) [2]: 1.38 fold

B5: T260H alemtuzumab (antibody)
chain 1: not shown
chain 2: not shown
Fold WT (SPR) [3]: 1.86 fold | Fold WT (AlphaScreen) [4]: 1 fold

B7: E258Y alemtuzumab (antibody)
chain 1: not shown
chain 2: not shown
Fold WT (SPR) [5]: 1.77 fold | Fold WT (AlphaScreen) [6]: 0.64 fold

Now from value to binder:

Kd [1]: 68 nM
B1: WT alemtuzumab (antibody)
chain 1: not shown
chain 2: not shown

Fold WT (AlphaScreen or SPR) [2]: 1.51 fold
B4: V284E alemtuzumab (antibody)
chain 1: not shown
chain 2: not shown

Fold WT (AlphaScreen or SPR) [2]: 12.8 fold
B6: S304T alemtuzumab (antibody)
chain 1: not shown
chain 2: not shown
